Key:
[1] = biological target: T1, peptide CALLPAVPSL (SEQ ID NO: 16), Example 3
T1 chain: CALLPAVPSL

[2] = biological target: T2, peptide CRVPGVAPTL (SEQ ID NO: 18), Example 4
T2 chain: CRVPGVAPTL

[3] = biological target: T3, peptide CSLGEQQYSV (SEQ ID NO: 17), Example 5
T3 chain: CSLGEQQYSV

B1: Endoplasmic reticulum aminopeptidase 1 (protein)
chain: MVFLPLKWSLATMSFLLSSLLALLTVSTPSWCQSTEASPKRSDGTPFPWNKIRLPEYVIPVHYDLLIHANLTTLTFWGTTKVEITASQPTSTIILHSHHLQISRATLRKGAGERLSEEPLQVLEHPRQEQIALLAPEPLLVGLPYTVVIHYAGNLSETFHGFYKSTYRTKEGELRILASTQFEPTAARMAFPCFDEPAFKASFSIKIRREPRHLAISNMPLVKSVTVAEGLIEDHFDVTVKMSTYLVAFIISDFESVSKITKSGVKVSVYAVPDKINQADYALDAAVTLLEFYEDYFSIPYPLPKQDLAAIPDFQSGAMENWGLTTYRESALLFDAEKSSASSKLGITMTVAHELAHQWFGNLVTMEWWNDLWLNEGFAKFMEFVSVSVTHPELKVGDYFFGKCFDAMEVDALNSSHPVSTPVENPAQIREMFDDVSYDKGACILNMLREYLSADAFKSGIVQYLQKHSYKNTKNEDLWDSMASICPTDGVKGMDGFCSRSQHSSSSSHWHQEGVDVKTMMNTWTLQKGFPLITITVRGRNVHMKQEHYMKGSDGAPDTGYLWHVPLTFITSKSDMVHRFLLKTKTDVLILPEEVEWIKFNVGMNGYYIVHYEDDGWDSLTGLLKGTHTAVSSNDRASLINNAFQLVSIGKLSIEKALDLSLYLKHETEIMPVFQGLNELIPMYKLMEKRDMNEVETQFKAFLIRLLRDLIDKQTWTDEGSVSERMLRSQLLLLACVHNYQPCVQRAEGYFRKWKESNGNLSLPVDVTLAVFAVGAQSTEGWDFLYSKYQFSLSSTEKSQIEFALCRTQNKEKLQWLLDESFKGDKIKTQEFPQILTLIGRNPVGYPLAWQFLRKNWNKLVQKFELGSSSIAHMVMGTTNQFSTRTRLEEVKGFFSSLKENGSQLRCVQQTIETIEENIGWMDKNFDKIRVWLQSEKLERM
- formation rate (%) of the peptide obtained by trimming (SEQ ID NO: 5), 1 hr later [1]: 65.5%
- formation rate (%) of the peptide obtained by trimming (SEQ ID NO: 5), 2 hr later [1]: 50.6%
- formation rate (%) of the peptide obtained by trimming (SEQ ID NO: 5), 4 hr later [1]: 13.5%
- formation rate (%) of the peptide obtained by trimming (SEQ ID NO: 5), 8 hr later [1]: 0%
- formation rate (%) of the peptide obtained by trimming (SEQ ID NO: 7), 1 hr later [2]: 59.1%
- formation rate (%) of the peptide obtained by trimming (SEQ ID NO: 7), 2 hr later [2]: 57.5%
- formation rate (%) of the peptide obtained by trimming (SEQ ID NO: 7), 4 hr later [2]: 30.1%
- formation rate (%) of the peptide obtained by trimming (SEQ ID NO: 7), 8 hr later [2]: 7.8%
- formation rate (%) of the peptide obtained by trimming (SEQ ID NO: 6), 1 hr later [3]: 77.6%
- formation rate (%) of the peptide obtained by trimming (SEQ ID NO: 6), 2 hr later [3]: 72.8%
- formation rate (%) of the peptide obtained by trimming (SEQ ID NO: 6), 4 hr later [3]: 46%
- formation rate (%) of the peptide obtained by trimming (SEQ ID NO: 6), 8 hr later [3]: 7.9%

Reference: patent US20190030149
